Here are results for two substances from patent JP2002506420A.

Assay [1] addresses FcRII (Fc gamma receptor II on K562 cells) (UniProt P12318). Kind of assay: cell-based or functional assay.
Assay [2] has as its target ヒトCD3抗原 (human CD3 antigen on the surface of human T cells) (human) (UniProt P07766). Briefly: competition with 125I-labelled mouse M291 on IL-2-activated human T cells; affinity by the method of Berzofsky and Berkower.
UniProt P07766, sequence (P07766 23-207): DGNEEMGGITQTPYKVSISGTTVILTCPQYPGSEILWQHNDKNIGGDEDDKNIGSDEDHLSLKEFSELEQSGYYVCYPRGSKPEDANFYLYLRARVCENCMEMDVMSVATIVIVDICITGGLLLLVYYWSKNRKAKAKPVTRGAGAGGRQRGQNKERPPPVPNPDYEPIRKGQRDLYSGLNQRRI

UniProt P12318, sequence (P12318 34-317): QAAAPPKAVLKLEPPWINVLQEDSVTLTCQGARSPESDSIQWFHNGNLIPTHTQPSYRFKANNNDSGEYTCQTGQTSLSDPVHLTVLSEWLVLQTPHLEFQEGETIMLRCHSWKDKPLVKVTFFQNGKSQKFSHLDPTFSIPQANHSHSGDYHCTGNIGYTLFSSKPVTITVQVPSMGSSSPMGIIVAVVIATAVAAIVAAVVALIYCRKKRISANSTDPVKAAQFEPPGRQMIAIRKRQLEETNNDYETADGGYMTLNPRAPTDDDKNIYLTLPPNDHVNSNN

“キメラOKT3 IgG2 (chimeric OKT3, wild-type human IgG2) (from UniProt P01859 1-326) (antibody)”: the K562細胞の特異的溶解 (reverse lysis, 51Cr release) in assay [1] is less than 32%.

As to “ヒト化M291 IgG1 (humanized M291, human IgG1) (from UniProt P01857 1-330) (antibody)”, the Ka in assay [2] was found to be 1.6e+09 M⁻¹.
